Results from patent publication US20070032417A1, “Peptides and therapeutic uses thereof” (priority 2002, published 2007).
Bridges are numbered along the chain shown (N, C = ends).

Biological target: GST tagged Bcl w delta C29 protein (UniProt Q92843)
Assay: AlphaScreen competition, GST detection; competitor biotinylated Bim BH3-26 peptide

IC50: 0.3 nM
B1: Peptide F, constrained 16-mer with a -NHCH2C(═O)(CH2)2NH2- linker tethering the two glutamic acid residues (peptide)
peptide: Ac-IWIAQELRRIGDEFNA-NH2
modifications: linker 6-13 via ‑NHCH2C(═O)(CH2)2NH2‑
